*: point of attachment. AMC = Cc1cc(=O)oc2cc(N*)ccc12

The target in one test is T1, G9a (GST-mG9a) (Mus musculus, UniProt Q9Z148).
T1 sequence (Q9Z148 1-1263): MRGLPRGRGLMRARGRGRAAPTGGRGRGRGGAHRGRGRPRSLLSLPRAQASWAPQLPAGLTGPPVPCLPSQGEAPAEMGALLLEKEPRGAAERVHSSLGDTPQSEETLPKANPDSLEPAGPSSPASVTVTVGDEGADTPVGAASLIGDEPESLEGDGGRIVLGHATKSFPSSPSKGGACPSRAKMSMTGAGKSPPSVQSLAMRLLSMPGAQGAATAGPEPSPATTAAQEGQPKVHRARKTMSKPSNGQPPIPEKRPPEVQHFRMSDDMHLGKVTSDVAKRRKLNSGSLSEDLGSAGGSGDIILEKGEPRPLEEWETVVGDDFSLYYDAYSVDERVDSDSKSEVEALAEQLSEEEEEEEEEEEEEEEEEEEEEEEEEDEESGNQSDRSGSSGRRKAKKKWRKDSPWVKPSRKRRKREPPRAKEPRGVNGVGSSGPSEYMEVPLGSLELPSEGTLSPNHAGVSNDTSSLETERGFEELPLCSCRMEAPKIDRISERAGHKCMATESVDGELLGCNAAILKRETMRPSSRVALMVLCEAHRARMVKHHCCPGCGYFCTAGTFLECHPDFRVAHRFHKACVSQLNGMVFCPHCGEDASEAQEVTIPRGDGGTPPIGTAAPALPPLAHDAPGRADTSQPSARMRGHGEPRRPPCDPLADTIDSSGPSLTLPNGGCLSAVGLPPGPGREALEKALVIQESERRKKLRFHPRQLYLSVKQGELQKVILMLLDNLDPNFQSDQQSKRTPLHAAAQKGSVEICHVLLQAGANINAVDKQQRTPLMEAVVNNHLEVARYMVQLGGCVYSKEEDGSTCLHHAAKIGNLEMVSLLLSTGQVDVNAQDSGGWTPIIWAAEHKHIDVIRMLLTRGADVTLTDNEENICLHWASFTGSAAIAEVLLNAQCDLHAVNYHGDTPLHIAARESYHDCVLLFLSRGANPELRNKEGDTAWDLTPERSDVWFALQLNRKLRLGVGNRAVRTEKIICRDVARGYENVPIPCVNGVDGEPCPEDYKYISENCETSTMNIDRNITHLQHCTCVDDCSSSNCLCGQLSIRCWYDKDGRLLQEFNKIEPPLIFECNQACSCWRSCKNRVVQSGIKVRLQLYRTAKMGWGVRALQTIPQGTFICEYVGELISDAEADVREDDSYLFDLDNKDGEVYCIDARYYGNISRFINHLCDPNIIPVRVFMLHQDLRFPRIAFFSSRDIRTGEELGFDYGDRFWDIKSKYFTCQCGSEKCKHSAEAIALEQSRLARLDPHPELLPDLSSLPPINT
In words: Substrate specificity / methylation of substrate compounds by G9a. The class given is biochemical. The conditions noted are these: Example 4; BocLysMCA 0.009 mM to 0.09 mM; G9a 0-0.15 μg/μL; FIG. 9. As for the experimental part: Distilled water was added to 10 μL of 2×HMT buffer (100 mM Tris-HCl (pH 8.5), 20 mM MgCl2, 40 mM KCl, 20 mM 2-mercaptoethanol, 500 mM sucrose), 2 μL of a BSA solution (30 μg/mL), and a predetermined concentration (final concentration: 0, 0.015, 0.05, or 0.15 μg/μL) of a histone methyltransferase (G9a) solution to adjust the total volume to 16 μL. Thereafter, the resultant solution was incubated at room temperature for 1 hour. Then, 2 μL of S-adenosylmethionine (SAM) (10 mM) and 2 μL of BocLysMCA (final concentration: 0.009 mM, 0.03 mM, or 0.09 mM) were added thereto, which was mixed and then incubated at 37° C. for 1 hour. Subsequently, 30 μL of a trypsin solution (20 mg/mL) was added thereto, followed by incubation at 37° C. for 15 minutes. The fluorescence intensity of the solution was measured at an excitation wavelength (λex) of 390 nm and a fluorescence wavelength (λem) of 460 nm.
When G9a was adopted as a histone methyltransferase, the following method was used. 10 μL of 2×HMT buffer (100 mM Tris-HCl (pH 8.5), 20 mM MgCl2, 40 mM KCl, 20 mM 2-mercaptoethanol, 500 mM sucrose), 0.4 μL of a BSA solution (150 μg/mL), 4.5 μL of GST-mG9a (0, 0.022 to 0.66 μg/μL), and 1.1 μL of distilled water were mixed and then incubated at room temperature for 1 hour. Then, 2 μL of SAM (10 mM) and 2 μL of a peptidyl MCA solution (0.6 mM) were added thereto, which was then incubated at 37° C. for 1 hour. Thereafter, 30 μL of a trypsin solution (20 mg/mL) was added thereto, followed by incubation at 37° C. for 15 minutes. Then, the fluorescence intensity of the solution was measured at an excitation wavelength (λex) of 390 nm and a fluorescence wavelength (λem) of 460 nm. The final concentration of GST-mG9a during the measurement of fluorescence intensity was 0, 0.005, 0.015, 0.05, or 0.15 μg/μL. The results of the assay for measuring histone methyltransferase activity are shown in the left panel of FIG. 14.
When G9a was adopted as a histone methyltransferase, the following method was used. 10 μL of 2×HMT buffer (100 mM Tris-HCl (pH 8.5), 20 mM MgCl2, 40 mM KCl, 20 mM 2-mercaptoethanol, 500 mM sucrose), 0.4 μL of a BSA solution (150 μg/mL), 3.6 μL of GST-mG9a (0, 0.028, 0.083, 0.28, 0.83 μg/μL), and 4 μL of distilled water were mixed and then incubated at room temperature for 1 hour. Then, 1 μL of SAM (20 mM) and 1 μL of a peptidyl MCA solution (1.2 mM) were added thereto, which was then incubated at 37° C. for 1 hour. Thereafter, 30 μL of a trypsin solution (20 mg/mL) was added thereto, followed by incubation at 37° C. for 15 minutes. Then, the fluorescence intensity of the solution was measured at an excitation wavelength (λex) of 390 nm and a fluorescence wavelength (λem) of 460 nm. The final concentration of GST-mG9a during the measurement of fluorescence intensity was 0, 0.005, 0.015, 0.05, or 0.15 μg/μL. The results of the assay for measuring histone methyltransferase activity are shown in the left panel of FIG. 16.
When G9a was adopted as a histone methyltransferase, the following method was used. 10 μL of 2×HMT buffer (100 mM Tris-HCl (pH 8.5), 20 mM MgCl2, 40 mM KCl, 20 mM 2-mercaptoethanol, 500 mM sucrose), 0.4 μL of a BSA solution (150 μg/mL), 4 μL of GST-mG9a (0, 0.025 to 0.75 μg/μL), and 3.6 μL of distilled water were mixed and then incubated at room temperature for 1 hour. Then, 1 μL of SAM (final concentration: 1 mM) and 1 μL, of a peptidyl MCA solution (1.2 mM) were added thereto, which was then incubated at 37° C. for 1 hour. Thereafter, 30 μL of a trypsin solution (20 mg/mL) was added thereto, followed by incubation at 37° C. for 15 minutes. Then, the fluorescence intensity of the solution was measured at an excitation wavelength (λex) of 330 nm and a fluorescence wavelength (λem) of 380 nm or at an excitation wavelength (λex) of 390 nm and a fluorescence wavelength (λem) of 460 nm. The final concentration of GST-mG9a during the measurement of fluorescence intensity was 0, 0.005, 0.015, 0.05, or 0.15 μg/μL.
Regarding `Cc1cc(=O)oc2cc(NC(=O)C(CCCCN)NC(=O)OC(C)(C)C)ccc12` (stereo not shown) [BocLysMCA, Boc-K-MCA], the “fluorescence intensity of AMC after G9a reaction and trypsin” value was “decreased in a manner dependent on the concentration of the histone methyltransferase G9a”.

The same test, now with this note: Example 6; GST-mG9a 0-0.15 μg/μL; left panel of FIG. 14.
As to Ac-QTARK-MCA [Ac-histone H3 (5-9)-MCA], the “methylation of peptidyl MCA by G9a” value was “methylation often occurred”.

As for “Ac-LKSK-MCA (Ac-LKSK-{AMC}; SMILES CC(=O)N[C@@H](CC(C)C)C(=O)N[C@@H](CCCCN)C(=O)N[C@@H](CO)C(=O)N[C@@H](CCCCN)C(=O)Nc1ccc2c(C)cc(=O)oc2c1; listed as Homo sapiens) [Ac-p53 (369-372)-MCA]”, the “methylation of peptidyl MCA by G9a” value is “little methylation occurred”.

Take “Ac-ARTKQTARK-MCA [Ac-histone H3 (1-9)-MCA]”: the “methylation of peptidyl MCA by G9a” value is on record as “methylation often occurred”.

Turning to “Ac-ARTK-MCA (Ac-ARTK-{AMC}; SMILES CC(=O)N[C@@H](C)C(=O)N[C@@H](CCCNC(=N)N)C(=O)N[C@H](C(=O)N[C@@H](CCCCN)C(=O)Nc1ccc2c(C)cc(=O)oc2c1)[C@@H](C)O; listed as Homo sapiens) [Ac-histone H3 (1-4)-MCA]”, the “methylation of peptidyl MCA by G9a” value is “little methylation occurred”.

Regarding “Ac-QLATKAARK-MCA (Ac-QLATKAARK-{AMC}; SMILES CC(=O)N[C@@H](CCC(N)=O)C(=O)N[C@@H](CC(C)C)C(=O)N[C@@H](C)C(=O)N[C@H](C(=O)N[C@@H](CCCCN)C(=O)N[C@@H](C)C(=O)N[C@@H](C)C(=O)N[C@@H](CCCNC(=N)N)C(=O)N[C@@H](CCCCN)C(=O)Nc1ccc2c(C)cc(=O)oc2c1)[C@@H](C)O; listed as Homo sapiens) [Ac-histone H3 (19-27)-MCA]”, the “methylation of peptidyl MCA by G9a” value is listed as “methylation often occurred”.

Take “Ac-ARK-MCA (Ac-Ala-Arg-Lys-{AMC}; SMILES CC(=O)N[C@@H](C)C(=O)N[C@@H](CCCNC(=N)N)C(=O)N[C@@H](CCCCN)C(=O)Nc1ccc2c(C)cc(=O)oc2c1; listed as Homo sapiens) [Ac-histone H3 (7-9/25-27)-MCA, acetyl-ARK (human histone H3 7-9 or 25-27)-MCA substrate]”: the “methylation of peptidyl MCA by G9a” value is reported as “methylation often occurred”.

With “Ac-KAARK-MCA (Ac-KAARK-{AMC}; SMILES CC(=O)N[C@@H](CCCCN)C(=O)N[C@@H](C)C(=O)N[C@@H](C)C(=O)N[C@@H](CCCNC(=N)N)C(=O)N[C@@H](CCCCN)C(=O)Nc1ccc2c(C)cc(=O)oc2c1; listed as Homo sapiens) [Ac-histone H3 (23-27)-MCA]”, the “methylation of peptidyl MCA by G9a” value is listed as “methylation often occurred”.

The test is the same for the next values; noted with them: Example 13; AMC and peptidyl MCA fluorescence; FIGS. 25 and 26.
As for “Ac-ARTKQTARK-MCA [Ac-histone H3 (1-9)-MCA]”, the “methylation of peptidyl MCA by GST-mG9a” value is listed as “methylates”.

For “Ac-KRSK-MCA (Ac-KRSK-{AMC}; SMILES CC(=O)N[C@@H](CCCCN)C(=O)N[C@@H](CCCNC(=N)N)C(=O)N[C@@H](CO)C(=O)N[C@@H](CCCCN)C(=O)Nc1ccc2c(C)cc(=O)oc2c1; listed as Homo sapiens) [Ac-ERα (299-302)-MCA]”, the “methylation of peptidyl MCA by GST-mG9a” value is “does not methylate”.

These data come from patent US9012166B2, “Method for assaying histone methylation enzyme activity” (Kyushu Institute of Technology, priority 2010, dated 2015).
